Data published in patent publication US20050239730A1, “Plasmodium falciparum erythrocyte binding protein baebl for use as a vaccine” (priority 2001, published 2005).

Experiments:
[1] = target: trypsin-treated human erythrocytes; assay: region II on COS cells, erythrocyte-binding assay
[2] = target: neuraminidase-treated normal human erythrocytes; assay: region II on COS cells, erythrocyte-binding assay
[3] = target: normal human erythrocytes (untreated); assay: region II on COS cells, erythrocyte-binding assay
[4] = target: Gerbich human erythrocytes (exon 3 deletion of glycophorin C/D: shortened glycophorin C, absent glycophorin D); assay: region II on COS cells, erythrocyte-binding assay
[5] = tested on: binding of BAEBL to human erythrocytes; assay: Competitive inhibition assay; details: 1 μM, 10 μM, 100 μM, and 1000 μM; preincubated 1 hr at room temperature
Protocol: To determine the specificity of binding, we studied binding to neuraminidase-and trypsin-treated human erythrocytes and human erythrocytes with various genetically modified blood groups. […] To determine whether BAEBL was binding to the carbohydrates on the erythrocyte receptor, we performed competitive inhibition with Neu5Ac(α2-3) lactosialic and Neu5Ac(α2-6)lactosialic acid at 1 μM, 10 μM, 100 μM, and 1000 μM.
An inhibition assay was conducted in the presence of Neu5Ac(α2-3) lactosialic acid or Neu5Ac(α2-6) lactosialic acid (Sigma). Metabolically labeled parasite supernatant (50 μl) was preincubated with 1, 10, 100, or 1000 μM in 15 μl of the aforementioned carbohydrates for 1 hr at room temperature. Packed erythrocytes (50 μl) were added to the mixture. The erythrocyte binding assay was conducted as described above. Immunolocalization of BAEBL.

| Compound | percentage of binding to normal, untreated RBC [1] [%] | percentage of binding to normal, untreated RBC [2] [%] | COS cells with five or more attached RBC, total per coverslip (COS cells per coverslip) [3] | percentage of binding to normal, untreated RBC [4] [%] | Inhibition of the binding of BAEBL to human erythrocytes [5] |
| --- | --- | --- | --- | --- | --- |
| BAEBL region II variant INRE, expressed on the surface of COS cells (ligand) | 114 | 110 | 67 | 100 | – |
| BAEBL region II variant ISKK, expressed on the surface of COS cells (ligand) | 92 | – | 59 | 96 | – |
| BAEBL region II variant VSKK, expressed on the surface of COS cells (ligand) | – | 90 | 58 | 112 | – |
| CC(=O)NC1C(O)CC(OCC2OC(OC3C(CO)OC(O)C(O)C3O)C(O)C(O)C2O)(C(=O)O)OC1C(O)C(O)CO (stereo not drawn) [Neu5Ac(α2-6) lactosialic acid] | – | – | – | – | neither Neu5Ac(α2-3) nor Neu5Ac(α2-6) lactosialic acid inhibited the binding |
| CC(=O)NC1C(O)CC(OC2C(O)C(CO)OC(OC3C(CO)OC(O)C(O)C3O)C2O)(C(=O)O)OC1C(O)C(O)CO (stereo not drawn) [Neu5Ac(α2-3) lactosialic acid] | – | – | – | – | neither Neu5Ac(α2-3) nor Neu5Ac(α2-6) lactosialic acid inhibited the binding |
